The results in this text go back to the RNAGym collection of RNA variant scans (doi:10.1093/nar/gkz1192).

Sequences and labels used below:
B1: CPEB3 Ribozyme (parent)
chain: UAACAGGGGGCCACAGCAGAAGCGUUCACGUCGCAGCCCCUGUCAGAUUCUGGUGAAUCUGCGAAUUCUGCUGUAUAUCUC

The variants in this data set derive from B1. Briefly: self-cleavage, relative activity (ratio to wild type); higher = more cleavage; in vitro, sequencing. Put shortly: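 Libraries of CPEB3 self-cleaving ribozyme mutants came from rounds of error-prone PCR and carried barcodes, which DNA sequencing matched to variants. In vitro transcription used T7 RNA polymerase at 37°C for 5 hours, with a further 15 min in DNase I before EDTA stopped the reaction; the ribozymes cleaved during both steps. The RNA was reverse transcribed with template switching and sequenced on Illumina. Relative activity is the cleaved/total read fraction of a variant divided by that of the unmutated ribozyme, averaged over three batches with at least 5 reads.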
U69C G73U: the self-cleavage is 0.88.

Take U69C G73A: the self-cleavage is 0.99.

Turning to U66C U78C, the self-cleavage was found to be 0.36.

For the variant U66C U78A, the self-cleavage was found to be 0.43.

In the case of C68G U78C, the self-cleavage was 0.69.

For C68A U72C, the self-cleavage was 0.2.

C68A U72A: the self-cleavage came out at 0.4.

For the variant C68U U78C, the self-cleavage is 1.03.

With C68U U78A, the self-cleavage was 1.01.

Regarding U67C C81U, the self-cleavage turned out to be 0.37.

With U67C C81G, the self-cleavage is 0.16.

In the case of U67A U69A, the self-cleavage was 0.3.

With U67A U69C, the self-cleavage came to 0.4.

In the case of C68U U69G, the self-cleavage amounted to 0.39.

For the variant C68U U69C, the self-cleavage worked out at 0.43.

Regarding C68U U69A, the self-cleavage amounted to 0.22.

A65U G73A: the self-cleavage was 0.29.

In the case of A65U G73U, the self-cleavage was found to be 0.57.

For U66C C79U, the self-cleavage was 0.39.

As for U66C C79A, the self-cleavage was found to be 0.38.

A65C A77G: the self-cleavage was 0.19.

As for A65C U74C, the self-cleavage turned out to be 0.3.

For A65C U72A, the self-cleavage came out at 0.27.

As for A65C U72C, the self-cleavage was 0.35.

Take U67C A77G: the self-cleavage is 0.3.

For U67C A77U, the self-cleavage is 0.34.

Take C68U U74C: the self-cleavage was found to be 1.19.

As for U67A U80A, the self-cleavage turned out to be 0.58.

As to U67A U80C, the self-cleavage turned out to be 0.58.

A65G U80A: the self-cleavage is 0.53.

Take A65G U80C: the self-cleavage was determined as 0.59.

For A65G U80G, the self-cleavage turned out to be 0.66.

As for U67C G70C, the self-cleavage was found to be 0.39.

Regarding U67C G70U, the self-cleavage is 0.26.

Regarding U67C G70A, the self-cleavage was found to be 0.18.

Take U69A G73U: the self-cleavage was determined as 0.93.

With U69A G73C, the self-cleavage amounted to 0.65.

As to U69A G73A, the self-cleavage turned out to be 1.16.

Take U69C U76A: the self-cleavage was 0.75.

In the case of U69C U76C, the self-cleavage is 0.66.

U66C G73U: the self-cleavage stood at 1.02.

Regarding U66C G73A, the self-cleavage came out at 0.81.

Consider U66C G73C, for which the self-cleavage turned out to be 0.58.

With C68A U76C, the self-cleavage turned out to be 0.54.

Take U67A U76C: the self-cleavage came to 0.58.

Turning to U67A U76A, the self-cleavage turned out to be 0.68.

Turning to U67G U74C, the self-cleavage was 0.6.

On to U67G A75U, for which the self-cleavage was 0.6.

Consider A65G U72G, for which the self-cleavage was determined as 0.4.

With A65G U72C, the self-cleavage came to 0.52.

With A65G U72A, the self-cleavage was 0.4.

With U69A A77G, the self-cleavage was 0.72.

For U69A A77U, the self-cleavage was 0.75.

As for A65C C79G, the self-cleavage amounted to 0.14.

In the case of U67G U80C, the self-cleavage turned out to be 0.34.

On to U67G U80A, for which the self-cleavage worked out at 0.4.

With A65G C79A, the self-cleavage was 0.67.

Turning to A65G C79G, the self-cleavage was 0.74.

Regarding A64U C81A, the self-cleavage was 0.42.

A65G C81A: the self-cleavage was found to be 0.48.

For A65G C81U, the self-cleavage turned out to be 0.63.

U67C C68U: the self-cleavage amounted to 0.46.

With U67C C68A, the self-cleavage amounted to 0.38.

With A65G G73C, the self-cleavage amounted to 0.74.

As for A65G G73U, the self-cleavage was 1.19.

Regarding A65G G73A, the self-cleavage stood at 1.06.

In the case of U67C U74A, the self-cleavage is 0.31.

In the case of U67C U74C, the self-cleavage stood at 0.37.

On to U66G, for which the self-cleavage was 0.48.

Regarding U66C, the self-cleavage amounted to 0.44.

As for U66A, the self-cleavage was 0.51.

Consider U67G A77C, for which the self-cleavage turned out to be 0.32.

Regarding U66G U78C, the self-cleavage stood at 0.41.

As to U67G U72C, the self-cleavage is 0.14.

For the variant U67G U72A, the self-cleavage is 0.36.

For U67A C79A, the self-cleavage turned out to be 0.82.

In the case of C68G U74A, the self-cleavage was found to be 0.43.

On to U69A, for which the self-cleavage came to 0.63.

As for U69C, the self-cleavage stood at 0.59.

On to A65U U76A, for which the self-cleavage was 0.19.

For A65U U76C, the self-cleavage was found to be 0.24.

Regarding C68A G73U, the self-cleavage worked out at 0.85.

C68A U74C: the self-cleavage worked out at 0.86.

In the case of C68A U74A, the self-cleavage came out at 0.52.

Regarding C68A U74G, the self-cleavage came out at 0.68.

On to C68U A75U, for which the self-cleavage is 1.02.

In the case of C68U A75G, the self-cleavage was determined as 0.67.

Turning to U66A U72A, the self-cleavage stood at 0.58.

On to U66A U72C, for which the self-cleavage was determined as 0.59.

Turning to A65U A75G, the self-cleavage amounted to 0.2.

Turning to A65U A75U, the self-cleavage came to 0.36.

Turning to U66G U69A, the self-cleavage came to 0.47.

With U66G U69C, the self-cleavage turned out to be 0.31.

In the case of U66A U67A, the self-cleavage turned out to be 0.26.

On to U66A U67C, for which the self-cleavage came to 0.33.

In the case of A65U A77U, the self-cleavage came out at 0.25.

Turning to A65U A77G, the self-cleavage is 0.2.

U67A A77G: the self-cleavage was found to be 0.57.

Consider U67A A77U, for which the self-cleavage stood at 0.39.

U69C C81U: the self-cleavage amounted to 0.5.

In the case of U69C C81G, the self-cleavage came out at 0.89.

In the case of U69C C81A, the self-cleavage was 1.16.

On to A65G U78G, for which the self-cleavage worked out at 0.44.

In the case of A65G U78C, the self-cleavage was 0.42.

Turning to A65G U78A, the self-cleavage was determined as 0.6.

On to A64U U67A, for which the self-cleavage was 0.29.

A64U U67C: the self-cleavage is 0.32.

For the variant U69A U80A, the self-cleavage was 0.74.

In the case of U69A U80C, the self-cleavage was 0.56.

With U69A U80G, the self-cleavage is 0.76.

As to A64U G73A, the self-cleavage is 0.98.

For the variant A64U G73C, the self-cleavage worked out at 0.67.

Take U67C U72A: the self-cleavage stood at 0.33.

As to U67C U72C, the self-cleavage turned out to be 0.29.

Take U67C U72G: the self-cleavage came to 0.22.

Regarding U66C C81A, the self-cleavage worked out at 0.54.

For U66C C81U, the self-cleavage is 0.44.

For the variant U66C A75G, the self-cleavage is 0.28.

On to U66C A75C, for which the self-cleavage is 0.54.

Consider U66C A75U, for which the self-cleavage amounted to 0.4.

For U69A U78C, the self-cleavage is 0.75.

In the case of U69A U78A, the self-cleavage stood at 0.92.

With U69A U78G, the self-cleavage is 0.39.

As to A65C C81A, the self-cleavage was 0.5.

A65C U67C: the self-cleavage turned out to be 0.23.

U69A A75C: the self-cleavage was found to be 0.55.

Regarding U69A A75G, the self-cleavage stood at 0.53.

For the variant U69A A75U, the self-cleavage stood at 0.66.

With C68G U72C, the self-cleavage was 0.48.

In the case of U67A A75U, the self-cleavage is 0.65.

Turning to U67A A75G, the self-cleavage stood at 0.54.

Regarding U69A C71G, the self-cleavage worked out at 0.22.

Consider U69A C71U, for which the self-cleavage amounted to 0.33.

Turning to A65U U80C, the self-cleavage is 0.38.

For A65U U80A, the self-cleavage amounted to 0.15.

With A65U U80G, the self-cleavage amounted to 0.21.

Take C68A U80C: the self-cleavage is 0.53.

With U66G G70A, the self-cleavage turned out to be 0.27.

In the case of A65U U67A, the self-cleavage was found to be 0.02.

As for A65U U67C, the self-cleavage stood at 0.28.

Regarding U66C C71U, the self-cleavage worked out at 0.43.

As to U66C C71A, the self-cleavage is 0.25.

On to A65U U72A, for which the self-cleavage is 0.23.

With A65U U72C, the self-cleavage stood at 0.36.

A65U U72G: the self-cleavage is 0.33.

Take U66C A77G: the self-cleavage amounted to 0.4.

In the case of U66C A77U, the self-cleavage was determined as 0.34.

For U67C C71G, the self-cleavage was found to be 0.21.

With U66C U67G, the self-cleavage worked out at 0.32.

Regarding U66C U67C, the self-cleavage was 0.32.

Regarding U66C U67A, the self-cleavage came out at 0.25.

For C68A, the self-cleavage was determined as 0.41.

In the case of C68G, the self-cleavage came to 0.47.

C68U: the self-cleavage was found to be 1.06.

With A65C U66C, the self-cleavage turned out to be 0.11.

Take U67A U74G: the self-cleavage came out at 0.81.

Take U67A U74A: the self-cleavage worked out at 0.8.

Take U67A U74C: the self-cleavage worked out at 0.92.

A65U U69C: the self-cleavage turned out to be 0.45.

With A65U U69A, the self-cleavage stood at 0.3.

For the variant A64U U66C, the self-cleavage stood at 0.31.

Consider A64U U66A, for which the self-cleavage came out at 0.27.

On to A64U U66G, for which the self-cleavage worked out at 0.13.

As to C68A U78C, the self-cleavage came to 0.5.

In the case of U66C G70A, the self-cleavage came to 0.35.

Take U66C G70U: the self-cleavage worked out at 0.22.

For the variant A65U U66C, the self-cleavage turned out to be 0.38.
